According to PMC7054686, “A revised model of TRAIL‐R2 DISC assembly explains how FLIP(L) can inhibit or promote apoptosis” (EMBO Reports, 2020):

Target: recombinant FLIP DED1/2 (amino acids 1–184) with a C‐terminal His‐tag (UniProt O15519 1-184)
Assay: AlphaScreen or HTRF; cell-free AlphaScreen: FLIP DED1/2-His on nickel chelate acceptor beads, GST-FADD DED on glutathione donor beads; 25 mM Tris pH 7.5, 300 mM NaCl, 0.0007% Tween-20, 0.05% BSA; room temperature; 25 μl in 384-well plate
Settings: both partners purified

B1: recombinant FADD DED (amino acids 1–90) with an N‐terminal GST‐tag (domain or fragment)
chain: MDPFLVLLHSVSSSLSSSELTELKFLCLGRVGKRKLERVQSGLDLFSMLLEQNDLEPGHTELLRELLASLRRHDLLRRVDDFEAGAAAGA
notes: FADD, death effector domain, amino acids 1-90; Held by glutathione donor beads in the AlphaScreen; source: recombinant; not shown: GST, N-terminal, kept
B1: binds.
